The record followed here is patent US20250333486A1 (NATIONAL HEALTH RESEARCH INSTITUTES, published 2025).

Positions count from the first letter of the chain named. Names may count otherwise.

The target of assay [1] is T1, recombinant 732-amino acid full-length human HSP90α (rHSP90α; PeproTech) (human, UniProt P07900 1-732, limits assumed).
T1 construct: Bought protein used as immunogen, ELISA coat (12.5 ng/ml), Biacore analyte and cell stimulus; also called recombinant human HSP90α; eHSP90α
In words: SPR, Biacore T200, fitted to a 1:1 interaction model [b]. As for the experimental part:
(§1) To measure the HSP90α-binding characteristics of anti-HSP90α antibodies, binding kinetic assays were performed using Biacore T200 (Cytiva Co., Marlborough, MA, USA). The interested anti-HSP90α antibodies were applied onto Protein A Series S sensor chips as ligands to achieve approximately 3000˜5000 response units. A series of concentrations of rHSP90α (1.5625-100 nM) in HBS-EP+ buffer were injected over the chip surface. The association was monitored for 60 sec, and the final dissociation time was 1500 sec.
(In general: Surface plasmon resonance follows binding to a sensor surface in real time, without labels.)

Assay [2] addresses T1, recombinant 732-amino acid full-length …. In words: SPR, Biacore T200; antibody captured on Protein A chip, rHSP90α 1.5625-100 nM as analyte; 1:1 model. As for the experimental part: as §1
The target of assay [3] is T2, DKEVSDDEAE
T2 construct: HSP90α a.a
T2 peptide: DKEVSDDEAE
In words: peptide-scanning ELISA on plates coated with 10-a.a. peptides [b]. The source says:
(§2) At first, the domain scanning strategy was used to roughly delineate the HSP90α region responsible for the binding with our prepared antibodies. The above-mentioned full-length HSP90α and its 3 truncated fragments were employed to coat 96-well ELISA plates for assaying the binding activities of the tested mouse monoclonal antibodies. […] Therefore, in peptide scanning strategy, a 132 peptide library was synthesized by Mimotopes Pty. Ltd. (Melbourne, Victoria, Australia), consisting of a series of 10-a.a. peptides offset by 2 a.a. to span the sequence of the a.a. […] This series of peptides were used to coat 96-well ELISA plates for assaying the binding activities of the tested antibodies. […] These peptides were subjected to ELISA as described above.
A general note: In an ELISA, binding on a coated surface is turned into a signal by an enzyme label.

For assay [4], the target named is T3, KPEIEDVGSD
T3 construct: HSP90α a.a
T3 peptide: KPEIEDVGSD
The description is as above.
Description: as §2

In assay [5] the target is T4, EDVGSDEEEE
T4 construct: HSP90α a.a
T4 peptide: EDVGSDEEEE
The description is as above.
Description: as §2

The target of assay [6] is T5, EDKEEEKEKE
T5 construct: HSP90α a.a
T5 peptide: EDKEEEKEKE
The assay is described as above.
Description: as §2

Assay [7] has as its target T6, VGSDEEEEKK
T6 construct: HSP90α a.a
T6 peptide: VGSDEEEEKK
The description is as above.
Description: as §2

In assay [8] the target is T7, EIEDVGSDEE
T7 construct: HSP90α a.a
T7 peptide: EIEDVGSDEE
The description is as above.
Description: as §2

In assay [9] the target is T8, a.a. 630~732.
T8 construct: not shown: left out of the chain
T8 sequence (chain, as listed by the source limits assumed): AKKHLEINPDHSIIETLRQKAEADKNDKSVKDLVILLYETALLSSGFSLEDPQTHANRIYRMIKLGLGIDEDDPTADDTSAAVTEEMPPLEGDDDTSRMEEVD
In words: domain-scanning ELISA on plates coated with full-length or truncated His-tagged HSP90α [a].
Description: as §2
As listed in the above Table 3, HH01 antibody is capable of binding specifically to the human HSP90α with novel amino acid (a.a.) sequences in the complementarity determining regions (CDRs), and therefore we intended to identify which region of HSP90α was bound by HH01 antibody. In a preliminary study, we employed the strategy of HSP90α domain scanning to delineate the HSP90α region responsible for the binding with Clone-2 antibody. […] Subsequently, the binding activities of Clone-2 antibody to the full-length and truncated HSP90α were assayed by a conventional ELISA method.

Assay [10] concerns the target T9, KEKEEKESED
T9 construct: HSP90α a.a
T9 peptide: KEKEEKESED
In words: peptide-scanning ELISA on plates coated with 10-a.a. peptides [c].
Description: as §2

For assay [11], the target named is T10, SDEEEEKKDG
T10 construct: HSP90α a.a
T10 peptide: SDEEEEKKDG
The assay is described as above.
Description: as §2

The target of assay [12] is T11, EVSDDEAEEK
T11 construct: HSP90α a.a
T11 peptide: EVSDDEAEEK
The description is as above.
Description: as §2

The target of assay [13] is T12, CD91, cell-surface receptor of eHSP90α, on PANC-1 cells (UniProt Q07954 20-4544, limits assumed).
T12 construct: whole, on cells; Endogenous receptor on human PANC-1 cells, detected by proximity ligation assay; also called CD91/LRP-1
T12 sequence (Q07954 20-4544 limits assumed): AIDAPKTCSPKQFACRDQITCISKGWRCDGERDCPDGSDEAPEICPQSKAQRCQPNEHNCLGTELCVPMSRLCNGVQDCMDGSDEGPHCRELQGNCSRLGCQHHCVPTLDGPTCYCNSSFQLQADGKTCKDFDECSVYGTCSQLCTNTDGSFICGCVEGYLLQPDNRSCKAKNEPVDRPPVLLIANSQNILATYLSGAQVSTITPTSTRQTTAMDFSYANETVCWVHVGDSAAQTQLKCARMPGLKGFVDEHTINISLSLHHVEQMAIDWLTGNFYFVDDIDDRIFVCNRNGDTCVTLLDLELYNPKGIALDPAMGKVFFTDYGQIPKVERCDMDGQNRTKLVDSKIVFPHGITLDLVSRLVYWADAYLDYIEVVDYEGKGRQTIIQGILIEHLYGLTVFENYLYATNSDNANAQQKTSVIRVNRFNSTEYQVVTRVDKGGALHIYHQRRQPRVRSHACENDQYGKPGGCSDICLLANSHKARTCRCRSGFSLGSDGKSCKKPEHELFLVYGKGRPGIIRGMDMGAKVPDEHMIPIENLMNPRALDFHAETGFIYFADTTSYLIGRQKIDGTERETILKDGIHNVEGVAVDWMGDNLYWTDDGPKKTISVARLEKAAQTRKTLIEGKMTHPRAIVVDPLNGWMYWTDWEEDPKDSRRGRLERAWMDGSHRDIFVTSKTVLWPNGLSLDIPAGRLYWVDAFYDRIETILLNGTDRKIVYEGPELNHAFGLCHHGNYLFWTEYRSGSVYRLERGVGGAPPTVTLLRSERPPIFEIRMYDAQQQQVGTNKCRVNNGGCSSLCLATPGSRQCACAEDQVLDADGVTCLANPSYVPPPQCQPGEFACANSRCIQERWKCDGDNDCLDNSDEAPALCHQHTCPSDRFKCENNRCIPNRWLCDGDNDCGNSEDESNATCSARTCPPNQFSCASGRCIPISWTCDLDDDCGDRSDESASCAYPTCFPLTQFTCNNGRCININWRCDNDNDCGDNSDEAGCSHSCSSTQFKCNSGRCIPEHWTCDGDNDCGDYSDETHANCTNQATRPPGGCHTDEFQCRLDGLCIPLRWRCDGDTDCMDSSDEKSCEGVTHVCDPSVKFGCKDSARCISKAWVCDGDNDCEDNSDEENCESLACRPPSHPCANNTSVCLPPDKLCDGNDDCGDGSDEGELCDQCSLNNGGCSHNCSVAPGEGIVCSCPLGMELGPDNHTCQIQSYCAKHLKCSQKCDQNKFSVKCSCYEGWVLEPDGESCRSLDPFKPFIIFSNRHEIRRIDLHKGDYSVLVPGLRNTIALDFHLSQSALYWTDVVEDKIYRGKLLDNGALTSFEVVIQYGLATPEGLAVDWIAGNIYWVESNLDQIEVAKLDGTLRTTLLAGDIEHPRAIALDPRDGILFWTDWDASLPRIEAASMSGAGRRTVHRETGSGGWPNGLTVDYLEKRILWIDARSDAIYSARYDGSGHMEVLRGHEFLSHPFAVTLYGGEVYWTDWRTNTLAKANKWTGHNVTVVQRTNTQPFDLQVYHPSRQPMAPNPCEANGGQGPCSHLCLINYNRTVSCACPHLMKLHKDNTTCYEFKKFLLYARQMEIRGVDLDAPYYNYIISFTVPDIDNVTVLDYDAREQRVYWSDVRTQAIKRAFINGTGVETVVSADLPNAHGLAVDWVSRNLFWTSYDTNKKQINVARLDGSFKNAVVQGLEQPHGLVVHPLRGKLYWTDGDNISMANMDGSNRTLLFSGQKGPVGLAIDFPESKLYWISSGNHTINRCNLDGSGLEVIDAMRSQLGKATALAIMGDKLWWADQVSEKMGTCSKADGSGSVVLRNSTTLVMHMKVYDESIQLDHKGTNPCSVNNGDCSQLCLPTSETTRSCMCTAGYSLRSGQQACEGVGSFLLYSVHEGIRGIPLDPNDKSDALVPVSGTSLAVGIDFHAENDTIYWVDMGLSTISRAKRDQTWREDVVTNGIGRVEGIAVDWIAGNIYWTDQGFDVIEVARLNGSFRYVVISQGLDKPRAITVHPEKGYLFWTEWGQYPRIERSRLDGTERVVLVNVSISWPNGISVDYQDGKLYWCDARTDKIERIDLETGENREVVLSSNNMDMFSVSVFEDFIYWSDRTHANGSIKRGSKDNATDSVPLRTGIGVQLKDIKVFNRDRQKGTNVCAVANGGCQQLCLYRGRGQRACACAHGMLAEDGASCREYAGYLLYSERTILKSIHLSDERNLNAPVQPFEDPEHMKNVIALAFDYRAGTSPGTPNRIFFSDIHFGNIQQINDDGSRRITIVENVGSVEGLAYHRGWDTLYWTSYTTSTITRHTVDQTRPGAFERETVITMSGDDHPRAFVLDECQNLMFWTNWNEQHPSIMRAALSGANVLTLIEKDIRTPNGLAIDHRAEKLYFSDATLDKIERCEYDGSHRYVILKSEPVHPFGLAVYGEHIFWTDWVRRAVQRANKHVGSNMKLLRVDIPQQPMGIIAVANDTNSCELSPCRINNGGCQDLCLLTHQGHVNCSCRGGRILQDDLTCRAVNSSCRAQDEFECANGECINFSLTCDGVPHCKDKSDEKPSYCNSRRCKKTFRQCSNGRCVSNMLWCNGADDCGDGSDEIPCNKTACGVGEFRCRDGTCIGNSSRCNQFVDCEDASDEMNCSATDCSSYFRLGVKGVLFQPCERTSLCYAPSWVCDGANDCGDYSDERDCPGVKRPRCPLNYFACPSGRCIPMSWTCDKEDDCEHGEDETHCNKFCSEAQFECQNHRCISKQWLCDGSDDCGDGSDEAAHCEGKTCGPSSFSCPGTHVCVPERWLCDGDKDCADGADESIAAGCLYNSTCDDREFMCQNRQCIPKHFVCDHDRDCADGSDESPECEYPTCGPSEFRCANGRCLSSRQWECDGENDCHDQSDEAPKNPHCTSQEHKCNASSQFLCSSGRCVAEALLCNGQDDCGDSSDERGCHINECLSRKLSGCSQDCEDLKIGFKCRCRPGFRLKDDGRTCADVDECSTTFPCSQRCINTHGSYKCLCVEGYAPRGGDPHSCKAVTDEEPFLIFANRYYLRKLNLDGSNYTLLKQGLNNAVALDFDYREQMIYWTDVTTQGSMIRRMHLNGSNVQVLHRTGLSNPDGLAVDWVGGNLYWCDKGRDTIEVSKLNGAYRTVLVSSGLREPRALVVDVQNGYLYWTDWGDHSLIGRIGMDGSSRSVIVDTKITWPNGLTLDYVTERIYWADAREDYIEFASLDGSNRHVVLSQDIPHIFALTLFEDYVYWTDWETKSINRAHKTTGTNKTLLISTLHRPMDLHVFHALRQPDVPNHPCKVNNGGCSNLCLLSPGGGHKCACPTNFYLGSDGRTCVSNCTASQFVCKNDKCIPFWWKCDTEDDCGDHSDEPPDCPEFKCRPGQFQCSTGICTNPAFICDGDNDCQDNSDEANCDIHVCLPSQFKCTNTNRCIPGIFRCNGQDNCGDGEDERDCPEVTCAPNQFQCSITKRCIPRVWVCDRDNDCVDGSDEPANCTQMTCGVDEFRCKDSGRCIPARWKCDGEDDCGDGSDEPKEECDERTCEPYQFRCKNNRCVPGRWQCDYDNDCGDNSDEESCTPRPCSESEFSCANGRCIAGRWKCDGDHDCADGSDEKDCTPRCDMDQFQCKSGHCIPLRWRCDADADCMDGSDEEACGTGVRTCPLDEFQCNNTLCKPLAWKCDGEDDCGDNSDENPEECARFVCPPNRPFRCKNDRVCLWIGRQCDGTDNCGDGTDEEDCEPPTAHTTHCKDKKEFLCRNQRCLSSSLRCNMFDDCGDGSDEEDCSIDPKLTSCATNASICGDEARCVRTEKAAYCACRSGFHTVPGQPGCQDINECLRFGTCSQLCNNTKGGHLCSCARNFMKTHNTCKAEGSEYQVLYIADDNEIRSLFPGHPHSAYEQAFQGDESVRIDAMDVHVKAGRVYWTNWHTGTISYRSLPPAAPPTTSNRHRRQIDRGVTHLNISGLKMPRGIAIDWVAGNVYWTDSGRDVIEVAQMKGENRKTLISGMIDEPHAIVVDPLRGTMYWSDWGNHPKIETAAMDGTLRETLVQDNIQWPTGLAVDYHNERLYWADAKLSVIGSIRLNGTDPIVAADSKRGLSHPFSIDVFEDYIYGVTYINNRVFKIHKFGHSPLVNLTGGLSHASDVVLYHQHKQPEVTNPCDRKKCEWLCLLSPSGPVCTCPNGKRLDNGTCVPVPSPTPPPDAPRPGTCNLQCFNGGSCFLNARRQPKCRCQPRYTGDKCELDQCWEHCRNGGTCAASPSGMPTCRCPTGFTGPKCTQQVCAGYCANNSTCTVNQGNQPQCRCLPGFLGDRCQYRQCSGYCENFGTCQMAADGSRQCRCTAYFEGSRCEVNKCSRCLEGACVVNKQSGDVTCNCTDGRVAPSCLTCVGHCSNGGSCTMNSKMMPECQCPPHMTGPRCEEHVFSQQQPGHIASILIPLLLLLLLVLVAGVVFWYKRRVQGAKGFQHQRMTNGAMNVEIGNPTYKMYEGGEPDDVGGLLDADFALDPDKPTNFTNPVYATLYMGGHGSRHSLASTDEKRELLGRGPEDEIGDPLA
In words: proximity ligation assay (PLA) in PANC-1 cells, 15 µg/ml rHSP90α, with or without 10 µg/ml control IgG, Clone-2 or Clone-6 [d]. The protocol: PANC-1 cells seeded onto glass coverslips at a density of 2×10⁵ cells per 22×22-mm coverslip were incubated 16 h with 0.5% serum-containing medium at 37° C. plus a 5% CO₂ humidified atmosphere. The cells were then added with PBS or 15 μg/ml of rHSP90α in the absence or presence of 10 μg/ml of control IgG or the tested anti-HSP90α antibody for another 24-h incubation. The treated cells were then fixed with 3% paraformaldehyde and blocked with the blocking solution provided in the Duolink in situ PLA kit (Olink Bioscience, Uppsala, Sweden). Furthermore, the cell samples were incubated overnight at 4° C. with anti-CD91 antibody (1:80, cat. #550495, BD Biosciences, San Jose, CA, USA) mixed with anti-HSP90α antibody (1:80, cat. #AHP-1339, AbD Serotec, Raleigh, NC, USA) or anti-IKKα antibody (1:80, cat. #3285, Epitomics Co., Burlingame, CA, USA). After washed trice with Tris-buffered saline plus 0.05% Tween 20, the cell samples were incubated with PLA probes for the subsequent ligation and amplification procedure according to the manufacturer's instructions for the Duolink in situ PLA kit. Finally, nuclei were counterstained with 4′,6′-diamidino-2-phenylindole (DAPI; Sigma-Aldrich). Images were photographed and analyzed using Leica TCS SP5 II confocal microscope and LAS AF Lite 4.0 software (Leica, Wetzlar, Germany).

B1: Clone-2-chimera anti-HSP90α antibody (antibody, V domains shown)
VH: EVQVVESGGGLVQPKGSLKLSCAASGFTFKTYAMNWVRQAPGKGLEWVARIRSKSRNYATYYADSVKDRFTISRDDSQFMFYLQMNNLKTEDTAMYYCVVGGSGFDYWGQGTTLTVSS
VL: DVLMTQTPLSLPVSLGDQASISCRSSQSIVHSNGNTYLEWYLQKPGQSPKLLIYKVSNRFSGVPDRFSGSGSGTDFTLSISRVEAGDLGVYYCFQGSHVPWTFGGGTKLEIK
notes: Clone-2 VH and VL joined to human IgG1 constant region (pFUSEss-CHIg-hG1e1; Fc with mutations at Q250T, E356D, M358L, L428M) and human κ constant region (pFUSE2ss-CLIg-hk); expressed in ExpiCHO cells
Consider B1, for which the koff (usually the first-order rate constant of dissociation) in assay [1] was 6.7e-05 s⁻¹. In addition, the kon – broadly, a measure of how fast the partners come together – in [1] was determined as 711000 M⁻¹ s⁻¹. In addition, the Kd (usually the free concentration of one partner at which half of the binding sites on the other are occupied at equilibrium, for simple one-to-one binding) in assay [2] amounted to 0.094 nM. The binding result in assay [3], in assay [4], in [5], in [6], in assay [7] and in assay [8] was “no binding” throughout.

B2: Clone-2 anti-HSP90α antibody (mouse monoclonal) (antibody, V domains shown)
VH: B1 VH
VL: B1 VL
notes: Mouse hybridoma antibody, IgG2b isotype with κ light chains; First tested as culture supernatant, then purified; also called Clone-2 antibody; parental Clone-2
As to B2, in assay [9], the binding result is “no binding”.

B3: HH01 anti-HSP90α antibody (Clone-2-hA) (antibody, V domains shown)
VH: B1 VH with V4L, K15G, K19R, K43Q, Q78K, F79N, M80Q, K89R, M95V
VL: B1 VL with L3V, K50Q, S79T, R82S, G86E
notes: expressed in ExpiCHO cells; also called HH01 antibody
For B3, the binding result in [10], in [11] and in [12] was “no binding” throughout. In addition, the koff in [1] is 0.000137 s⁻¹. For the same molecule, the kon in assay [1] amounted to 729000 M⁻¹ s⁻¹. In assay [2], the Kd amounted to 0.187 nM.

B4: IKKα (enzyme, human, UniProt O15111 1-745, looked up)
single chain: MERPPGLRPGAGGPWEMRERLGTGGFGNVCLYQHRELDLKIAIKSCRLELSTKNRERWCHEIQIMKKLNHANVVKACDVPEELNILIHDVPLLAMEYCSGGDLRKLLNKPENCCGLKESQILSLLSDIGSGIRYLHENKIIHRDLKPENIVLQDVGGKIIHKIIDLGYAKDVDQGSLCTSFVGTLQYLAPELFENKPYTATVDYWSFGTMVFECIAGYRPFLHHLQPFTWHEKIKKKDPKCIFACEEMSGEVRFSSHLPQPNSLCSLVVEPMENWLQLMLNWDPQQRGGPVDLTLKQPRCFVLMDHILNLKIVHILNMTSAKIISFLLPPDESLHSLQSRIERETGINTGSQELLSETGISLDPRKPASQCVLDGVRGCDSYMVYLFDKSKTVYEGPFASRSLSDCVNYIVQDSKIQLPIIQLRKVWAEAVHYVSGLKEDYSRLFQGQRAAMLSLLRYNANLTKMKNTLISASQQLKAKLEFFHKSIQLDLERYSEQMTYGISSEKMLKAWKEMEEKAIHYAEVGVIGYLEDQIMSLHAEIMELQKSPYGRRQGDLMESLEQRAIDLYKQLKHRPSDHSYSDSTEMVKIIVHTVQSQDRVLKELFGHLSKLLGCKQKIIDLLPKVEVALSNIKEADNTVMFMQGKRQKEIWHLLKIACTQSSARSLVGSSLEGAVTPQTSAWLPPTSAEHDHSLSCVVTPQDGETSAQMIEENLNCLGHLSTIIHEANEEQGNSMMNLDWSWLTE
notes: endogenous, in cells; partner of CD91 in the proximity ligation assay
Take B4: in assay [13], the binding result is “binds”.
